This is an account of results in paper PMC11480844 (2024).

B1: H2-Kb / F4 (parent complex)
chain 1: QQQVRQSPQSLTVWEGETAILNCSYEDSTFNYFPWYQQFPGEGPALLISIRSVSDKKEDGRFTIFFNKREKKLSLHITDSQPGDSATYFCAAMSNYNVLYFGSGTKLTVEP
chain 2: ETAVFQTPNYHVTQVGNEVSFNCKQTLGHDTMYWYKQDSKKLLKIMFSYNNKQLIVNETVPRRFSPQSSDKAHLNLRIKSVEPEDSAVYLCASSARQNSPLYFAAGTRLTVT
chain 3: not shown
chain 4: IQKTPQIQVYSRHPPENGKPNILNCYVTQFHPPHIEIQMLKNGKKIPKVEMSDMSFSKDWSFYILAHTEFTPTETDTYACRVKHDSMAEPKTVYWDRDM
chain 5: SIINFEKL

Variants of B1 are the subject of the experiment. Put plainly: % of reporter cells activated (NFAT-GFP), raw. Also: test concentration or dose not given here.
For the variant chain 5 N4L, the ratio to parent turned out to be 0.0594.

Take chain 5 N4M: the ratio to parent turned out to be 0.021.

For the variant chain 5 N4C, the ratio to parent came out at 0.0522.

With chain 5 N4I, the ratio to parent was 0.0205.

In the case of chain 5 N4Y, the ratio to parent stood at 0.0299.

As to chain 5 N4Q, the ratio to parent amounted to 0.0116.

Regarding chain 5 N4P, the ratio to parent was 0.0246.

For chain 5 N4A, the ratio to parent turned out to be 0.0308.

As to chain 5 N4V, the ratio to parent came out at 0.0362.

For chain 5 N4G, the ratio to parent came to 0.225.

As to chain 5 N4R, the ratio to parent is 0.0277.

As for chain 5 L8E, the ratio to parent is 0.355.

In the case of chain 5 L8F, the ratio to parent was 0.564.

For chain 5 L8K, the ratio to parent is 0.352.

For chain 5 L8G, the ratio to parent worked out at 0.564.

Turning to chain 5 L8C, the ratio to parent was 0.783.

Consider chain 5 L8I, for which the ratio to parent was determined as 0.903.

Take chain 5 L8D: the ratio to parent is 0.312.

chain 5 E6F: the ratio to parent amounted to 0.033.

Turning to chain 5 E6R, the ratio to parent was 0.0897.

For chain 5 E6W, the ratio to parent was 0.113.

Take chain 5 E6G: the ratio to parent was found to be 0.0237.

Turning to chain 5 E6M, the ratio to parent amounted to 0.0214.

Regarding chain 5 E6A, the ratio to parent stood at 0.05.

In the case of chain 5 E6H, the ratio to parent worked out at 0.0263.

On to chain 5 E6P, for which the ratio to parent is 0.0487.

With chain 5 E6V, the ratio to parent was determined as 0.0232.

As to chain 5 E6Y, the ratio to parent is 0.0161.

As to chain 5 I3N, the ratio to parent worked out at 0.188.

Turning to chain 5 I3S, the ratio to parent was 0.106.

Take chain 5 I3V: the ratio to parent amounted to 1.74.

Regarding chain 5 I3P, the ratio to parent turned out to be 0.083.

In the case of chain 5 I3C, the ratio to parent was found to be 0.558.

In the case of chain 5 I3K, the ratio to parent was 0.262.

For chain 5 I3H, the ratio to parent amounted to 0.0214.

For the variant chain 5 I3E, the ratio to parent worked out at 0.0777.

Regarding chain 5 I3M, the ratio to parent stood at 0.125.

Consider chain 5 I3L, for which the ratio to parent was 2.05.

For chain 5 F5M, the ratio to parent is 1.29.

chain 5 F5L: the ratio to parent was 0.554.

In the case of chain 5 F5E, the ratio to parent stood at 0.0661.

chain 5 F5H: the ratio to parent is 1.01.

In the case of chain 5 F5T, the ratio to parent was 1.19.

Take chain 5 F5R: the ratio to parent is 0.285.

For chain 5 F5I, the ratio to parent was found to be 1.36.

Regarding chain 5 F5Y, the ratio to parent is 0.526.

Regarding chain 5 I2C, the ratio to parent came to 2.17.

In the case of chain 5 I2P, the ratio to parent was determined as 0.16.

On to chain 5 I2F, for which the ratio to parent is 0.955.

With chain 5 I2Y, the ratio to parent is 0.108.

In the case of chain 5 I2D, the ratio to parent worked out at 0.406.

With chain 5 I2R, the ratio to parent came out at 0.393.

On to chain 5 I2W, for which the ratio to parent was determined as 0.641.

Turning to chain 5 I2T, the ratio to parent is 0.773.

On to chain 5 I2H, for which the ratio to parent was determined as 0.0964.

chain 5 K7Y: the ratio to parent is 1.03.

In the case of chain 5 K7V, the ratio to parent is 0.927.

In the case of chain 5 K7Q, the ratio to parent amounted to 0.417.

Take chain 5 K7E: the ratio to parent was 0.105.

In the case of chain 5 K7P, the ratio to parent was 0.0549.

Turning to chain 5 K7C, the ratio to parent is 0.377.

For the variant chain 5 K7W, the ratio to parent came to 0.517.

For the variant chain 5 K7H, the ratio to parent is 1.35.

For chain 5 K7N, the ratio to parent worked out at 0.254.

As for chain 5 S1M, the ratio to parent was 0.0268.

As for chain 5 S1F, the ratio to parent is 0.0348.

With chain 5 S1E, the ratio to parent was 0.029.

Regarding chain 5 S1Y, the ratio to parent was found to be 0.0768.

Consider chain 5 S1Q, for which the ratio to parent was found to be 0.0344.

chain 5 S1I: the ratio to parent was 0.0174.

Turning to chain 5 S1L, the ratio to parent stood at 0.0263.

Take chain 5 S1V: the ratio to parent came to 0.0638.

Turning to chain 5 S1G, the ratio to parent is 0.188.

Take chain 5 S1A: the ratio to parent was 0.0272.

On to chain 5 S1D, for which the ratio to parent turned out to be 0.0189.
